Results as given in PMC5500003.

Experiments:
[1] = tested on: tau 4R2N (Homo sapiens), P10636-8; assay: ITC; settings: n = 0.52 tRNA per tau; 20 mM ammonium acetate pH 7; EMSA: 100 mM sodium acetate pH 7.0, 0.5 mM EDTA, 0.5 mM MgCl2, 0.01% IGEPAL CA-630, RNase inhibitor, 37 C 10 min, TBE 8% gel; ITC: 20 mM ammonium acetate pH 7 …
tau K18 (Homo sapiens) = assay: ITC; settings: n = 0.49 tRNA per tau; 20 mM ammonium acetate pH 7; EMSA: 100 mM sodium acetate pH 7.0, 0.5 mM EDTA, 0.5 mM MgCl2, 0.01% IGEPAL CA-630, RNase inhibitor, 37 C 10 min, TBE 8% gel; ITC: 20 mM ammonium acetate pH 7 …
[2] = tested on: tau 4R2N (Homo sapiens), P10636-8; assay: EMSA; settings: Hill coefficient 2.8; 26 nM tRNA, 0.5 mM MgCl2, 0.5 mM EDTA, 37 C; native tRNA modifications likely, not described; EMSA: 100 mM sodium acetate pH 7.0, 0.5 mM EDTA, 0.5 mM MgCl2, 0.01% IGEPAL CA-630, RNase inhibitor, 37 C 10 min, TBE 8% gel; ITC: 20 mM ammonium acetate pH 7 …

Chain of tau 4R2N (Homo sapiens), P10636-8 (P10636 other isoform, or with tags, fused parts or gaps): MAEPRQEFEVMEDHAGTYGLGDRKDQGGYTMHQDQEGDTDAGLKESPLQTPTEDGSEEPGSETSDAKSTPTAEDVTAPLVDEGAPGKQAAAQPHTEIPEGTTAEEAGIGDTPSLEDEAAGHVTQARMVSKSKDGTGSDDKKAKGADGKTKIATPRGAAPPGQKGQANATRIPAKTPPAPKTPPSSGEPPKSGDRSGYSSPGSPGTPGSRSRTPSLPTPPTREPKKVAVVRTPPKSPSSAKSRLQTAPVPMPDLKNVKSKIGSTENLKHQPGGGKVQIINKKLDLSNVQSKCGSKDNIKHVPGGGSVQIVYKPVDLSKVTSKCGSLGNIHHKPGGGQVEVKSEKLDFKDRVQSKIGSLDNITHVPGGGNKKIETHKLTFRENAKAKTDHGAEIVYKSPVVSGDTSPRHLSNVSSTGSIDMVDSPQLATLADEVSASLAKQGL

Substance | Kd [1] [µM] | Kd (tau K18 (Homo sapiens)) [µM] | Kd [2] [µM]
yeast tRNA (bulk) | 0.735 | 0.372 | 
tRNALys, unacetylated |  |  | 0.46
